Measured values: the supplement of paper PMC10567573
± gives the standard deviation.

Test: protein stability index of a GFP-peptide fusion (GPS, HEK-293T) (PSI 1-6); higher = more stable
Conditions: c terminus: a fixed tail appended
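Further: 24-mer peptide tiles fused after GFP, lentivirally expressed, FACS-sorted into six equal bins by GFP/DsRed ratio, decoded by Illumina sequencing, PSI is the read-weighted mean bin number.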

Sequence	protein stability index (treatment: DMSO)	protein stability index (treatment: MLN4924 1 uM, 8 h)
LLQADREHLPVKPDTMEKLRTHID [DENND6A]	3.86 ± 0.36	3.92 ± 0.12
LLSIGPELPKPEVISQLEQGTELW [ZNF8]	4.19 ± 0.28	3.54 ± 0.099
LMRHGMEKIWRPNRVFSLQDLCCR [RAB40C]	2.74 ± 0.14	2.71 ± 0.27
LNFKAEPESETSILLSWTPPRSDT [PTPRD]	3.3 ± 0.36	3.45 ± 0.28
LNKPALQAQPLRTTSTLASSLPGH [EHMT1]	3.81 ± 0.14	3.91 ± 0.28
LNQGSVFQEYDTDCEVFRQRFRQF [ZNF449]	2.98 ± 0.27	3.19 ± 0.12
LPGLAGPSGEMVKSTTSLTSSSTS [MLH1]	4.83 ± 0.17	4.82 ± 0.058
LPLLRQTAGKVLAHFYGVKLEGKV [ESRRA]	2.26 ± 0.31	2.11 ± 0.18
LPNTLLRKDKDVARLQDFQELELV [ANKRD40]	3.76 ± 0.11	3.66 ± 0.29
LPREEEIVFPEKLNGSVLPGSGAP [ADAMTS4]	4.49 ± 0.45	4.63 ± 0.46
LPSENLGKEPLDPDPSHSPSDKVG [TOR1AIP2]	5.42 ± 0.22	5.494 ± 0.038
LPSWADICTNLCEALQNFFSLACS [M1AP]	2.89 ± 0.31	2.9 ± 0.14
LQAKQDGKKDVSHSSPVDLKIPQV [LCOR]	4.94 ± 0.21	4.92 ± 0.06
LQPPHESRPQPIYYGFSESAESQG [ADAMTSL2]	4.18 ± 0.39	4.22 ± 0.56
LQQLLVLQPEQQLNIYKTLKTHLI [CDS1]	2.4 ± 0.55	2.17 ± 0.36
LRAELTKVEEEIVTLRQVLAAKER [TPD52L2]	2.93 ± 0.31	3.45 ± 0.3
LRGAKAFRLPGLSRREREPEPPAA [FCHO1]	4.37 ± 0.28	4.14 ± 0.29
LRQFDLAWQYGPCTGITRLQRWCR [POLD4]	2.26 ± 0.21	2.32 ± 0.27
LSAASPDTGHDSDKSDQSLPNASA [TRAF3IP2]	5.53 ± 0.28	5.51 ± 0.13
LSASGPFESHDLLRKGFSCVKNEL [POMP]	3.37 ± 0.053	3.35 ± 0.43
LSKFDLPEEPSAEDSINNSLVQLQ [MYBL2]	4.88 ± 0.13	4.85 ± 0.16
LSNQLAVTFREENTIAFRHLFLLG [MCOLN1]	2.48 ± 0.11	2.5 ± 0.18
LSPAQKDLYRDVMLENYSNLVSVG [ZNF649]	2.37 ± 0.74	3.02 ± 0.77

Sequence	protein stability index (treatment: DMSO)	protein stability index (treatment: MLN4924 1 uM, 8 h)
LSRHDKAVQRFCLIGSLSKHESEY [NETO1]	2.72 ± 0.12	2.69 ± 0.072
LTDVSPEPLQALLERASATLQDLV [PRAME]	3.05 ± 0.16	3.33 ± 0.6
LTFHGLILRSQLVTLLVRGVCYSE [CLCN6]	2.98 ± 0.35	3.03 ± 0.26
LTLCRSDLEAQMESLKEELLSLKQ [KRT33B]	2.41 ± 0.28	2.8 ± 0.24
LTQTMHDLAGLGSETPKSQVGTLL [CDC25B]	3.39 ± 0.42	3.62 ± 0.22
LVDNVYCIGQRRFHTMDELVEHYK [NCK2]	3.68 ± 0.24	3.96 ± 0.16
LVFQRRMDGQTDFWRDWEDYAHGF [TNXB]	2.64 ± 0.61	1.93 ± 0.51
LVNPTCQVLVKDFTFEGFSRLRFL [ZER1]	2.02 ± 0.23	2.27 ± 0.29
LVQDQDLEAIRKQDLVELYLTNCE [ZER1]	3.61 ± 0.4	3.85 ± 0.38
LVQSSRSEVTELRRVLQGLEIELQ [KRT16]	3.1 ± 0.24	3.08 ± 0.38
LVSRHDPASRRRVVEEVRRRATSG [LPCAT4]	4.5 ± 0.19	4.49 ± 0.23
LWSDPDDRGGWGISPRGAGYTFGQ [PPP2CA]	2.5 ± 0.31	2.72 ± 0.26
LWTSFIQSVSYSKLLSVIVWMLML [P2RY14]	3.32 ± 0.53	3.4 ± 0.21
LYLCPNGARCATWFQDPTRFTGTM [SLC25A39]	2.82 ± 0.64	2.7 ± 0.63
MAEGSAVSDPQHAARLLRALSSFR [GAN]	3.16 ± 0.28	3.3 ± 0.24
MAKFVIRPATAADCSDILRLIKEL [SAT1]	2.04 ± 0.16	2.22 ± 0.22
MANIHQENEEMEQPMQNGEEDRPL [BEX3]	5.46 ± 0.055	5.71 ± 0.087
MAREHAFNIGLPDNIVNCNEFLCT [ZNF277]	2.94 ± 0.21	2.92 ± 0.57
MATPPFRLIRKMFSFKVSRWMGLA [CCDC70]	2.51 ± 0.48	2.22 ± 0.099
MCDAFVGTWKLVSSENFDDYMKEV [FABP4]	2.55 ± 0.44	2.42 ± 0.46
MCKEHEDEKINIYCLTCEVPTCSM [TRIM63]	3.35 ± 0.26	3.27 ± 0.35
MDVAISNNKKWILSASKDRTMRLW [WDR88]	2.38 ± 0.19	2.35 ± 0.32
